In patent US20260144818A1, “ARMED CHIMERIC RECEPTORS AND METHODS OF USE THEREOF” (Senti Biosciences, Inc., priority 2022, published 2026):

Test system: tumor target cells that constitutively express a fluorescent reporter (mKate)
Test: Serial killing screen of IL15 formats and combinations with IL21 or IL7
Assay type: cell-based
Experimental: 6 to 7 days after transduction, NK cells were collected, counted and seeded in a co-culture with tumor target cells that constitutively express a fluorescent reporter (mKate) at the appropriate effector to target (E:T) ratios. Tumor target cell growth (area) was quantified using an imaging-based system (Incucyte, Sartorius). After 48 to 72 hours of co-culture, new target cells were plated, and the NK cells were collected from the original plates and transferred to newly seeded targets for a 2nd or 3rd tumor re-challenge (serial killing). Target cell area was quantified and compared across different conditions. […] Similar serial target cell killing is shown at a different E:T ratio in FIG. 60E.
Additionally, various constructions of a chimeric protein containing IL15 tethered to the IL15 receptor (FIG. 61A) was tested.

B1: IL7 with crIL15: CAR-NK cells co-expressing IL7 (SEQ ID NO: 394) with crIL15 (protein, UniProt P13232 26-177, looked up)
Interleukin-7: DCDIEGKDGKQYESVLMVSIDQLLDSMKEIGSNCLNNEFNFFKRHICDANKEGMFLFRAARKLRQFLKMNSTGDFDLHLLKVSEGTTILLNCTGQVKGRKPAALGEAQPTKSLEENKSLKEQKKLNDLCFLKRLLQEIKTCWNKILMGTKEH
- serial target cell killing: no improvement in serial target cell killing
